From publication doi:10.1101/2022.09.25.509378

Legend:
[1] = biological target: bacteriophage λ terminase protomer (TerL•TerS2) (bacteriophage λ) (UniProt P03708); assay: AUC
[2] = biological target: bacteriophage λ terminase protomer (TerL•TerS2) (bacteriophage λ) (UniProt P03708); assay: AUC; remark: listed apart in the source
[3] = biological target: bacteriophage λ terminase protomer (TerL•TerS2) (bacteriophage λ) (UniProt P03708); assay: SAXS
[4] = biological target: bacteriophage λ terminase protomer (TerL•TerS2) (bacteriophage λ) (UniProt P03708); assay: cryo-EM 2D class averages
[5] = biological target: bacteriophage λ terminase protomer (TerL•TerS2) (bacteriophage λ) (UniProt P03708); assay: native MS

Question: For “bacteriophage λ terminase protomer (TerL•TerS2) (from UniProt P03708 1-641; P03707 1-181) (complex)”, which stoichiometry N [1] is on record?
Answer: 3.3 to 4.4 protomers

Question: And the stoichiometry N [2]?
Answer: 4.5 S

Question: What about the stoichiometry N [3] of the same substance?
Answer: 4.4 protomers

Question: And the stoichiometry N [4]?
Answer: 5

Question: And the stoichiometry N [5]?
Answer: 5 protomers
